Sequences and labels used below:
B1: Myosin 7b MF2 (domain or fragment, human, UniProt Q6PIF6 1605-2116, looked up)
chain: KEKLHTLEEFSYEFFRAPEKDMVSMAVLPLARARGHLWAYSCEPLRQPLLKRVHANVDLWDIACQIFVAILRYMGDYPSRQAWPTLELTDQIFTLALQHPALQDEVYCQILKQLTHNSNRHSEERGWQLLWLCTGLFPPSKGLLPHAQKFIDTRRGKLLAPDCSRRIQKVLRTGPRKQPPHQVEVEAAEQNVSRICHKIYFPNDTSEMLEVVANTRVRDVCDSIATRLQLASWEGCSLFIKISDKVISQKEGDFFFDSLREVSDWVKKNKPQKEGAPVTLPYQVYFMRKLWLNISPGKDVNADTILHYHQELPKYLRGFHKCSREDAIHLAGLIYKAQFNNDRSQLASVPKILRELVPENLTRLMSSEEWKKSILLAYDKHKDKTVEEAKVAFLKWICRWPTFGSAFFEVKQTSEPSYPDVILIAINRHGVLLIHPKTKDLLTTYPFTKISSWSSGSTYFHMALGSLGRGSRLLCETSLGYKMDDLLTSYVQQLLSAMNKQRGSKAPALAST
notes: also called M7b MF2; Myo7b MF2; source: E. coli (BL21-AI, BL21 (DE3) Rosetta or BL21-Gold (DE3)), purified (Histrap, CaptoQ, gel filtration)
B6: Myosin 7a MF2 (domain or fragment, human, UniProt Q13402-1 1702-2215, looked up)
chain: TAEPEVRAKPYTLEEFSYDYFRPPPKHTLSRVMVSKARGKDRLWSHTREPLKQALLKKLLGSEELSQEACLAFIAVLKYMGDYPSKRTRSVNELTDQIFEGPLKAEPLKDEAYVQILKQLTDNHIRYSEERGWELLWLCTGLFPPSNILLPHVQRFLQSRKHCPLAIDCLQRLQKALRNGSRKYPPHLVEVEAIQHKTTQIFHKVYFPDDTDEAFEVESSTKAKDFCQNIATRLLLKSSEGFSLFVKIADKVLSVPENDFFFDFVRHLTDWIKKARPIKDGIVPSLTYQVFFMKKLWTTTVPGKDPMADSIFHYYQELPKYLRGYHKCTREEVLQLGALIYRVKFEEDKSYFPSIPKLLRELVPQDLIRQVSPDDWKRSIVAYFNKHAGKSKEEAKLAFLKLIFKWPTFGSAFFEVKQTTEPNFPEILLIAINKYGVSLIDPKTKDILTTHPFTKISNWSSGNTYFHITIGNLVRGSKLLCETSLGYKMDDLLTSYISQMLTAMSKQRGSRSGK
notes: Myosin 7a, human, C-terminal MyTH4-FERM domain (MF2), residues 1702-2215 of UniProt Q13402-1; Thrombin site of the vector replaced by an SSG linker; also called M7a MF2; Myo7a MF2; source: E. coli (BL21-AI, BL21 (DE3) Rosetta or BL21-Gold (DE3)), purified (Histrap, CaptoQ, gel filtration)

Holding throughout (details): both partners purified
Assay [1] concerns the target T1, YFP-Full length (FL)-harmonin (harmonin-a1) (human, UniProt Q9Y6N9-1 1-552).
T1 construct: Harmonin-a1 (USH1C), human, residues 1-552 of UniProt Q9Y6N9-1; also called ^YFPFL (isoA); ^YFPFL; source: E. coli BL21 (DE3) Rosetta, purified (Glutathione Sepharose 4B, size-exclusion chromatography)
T1 sequence (looked up): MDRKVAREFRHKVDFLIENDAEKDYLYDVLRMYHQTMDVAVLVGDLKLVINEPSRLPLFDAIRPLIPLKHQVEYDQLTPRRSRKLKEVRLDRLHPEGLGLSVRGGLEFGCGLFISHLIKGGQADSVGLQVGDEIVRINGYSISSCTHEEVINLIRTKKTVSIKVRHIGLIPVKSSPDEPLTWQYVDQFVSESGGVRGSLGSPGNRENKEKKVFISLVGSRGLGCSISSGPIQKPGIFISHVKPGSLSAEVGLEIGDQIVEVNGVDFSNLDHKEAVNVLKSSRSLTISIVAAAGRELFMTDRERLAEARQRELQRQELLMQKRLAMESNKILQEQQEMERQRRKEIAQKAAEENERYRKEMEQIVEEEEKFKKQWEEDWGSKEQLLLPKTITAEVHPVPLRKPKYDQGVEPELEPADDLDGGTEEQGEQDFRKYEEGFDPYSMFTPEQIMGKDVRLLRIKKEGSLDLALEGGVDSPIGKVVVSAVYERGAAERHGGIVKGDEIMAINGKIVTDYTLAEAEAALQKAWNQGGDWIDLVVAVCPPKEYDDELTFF
The assay can be described thus: MST; as a1 but 150 mM NaCl (for FL-Harmonin-a); YFP-fused partner constant at 100 nM, non-fluorescent protein titrated.

For a further assay, the target named is T2, YFP-Myosin 7b MF2 (human, UniProt Q6PIF6 1605-2116).
T2 construct: Myosin 7b, human, MF2, residues 1605-2116 of UniProt Q6PIF6; pET14-YFP vector; also called ^YFPM7b MF2; source: E. coli (BL21-AI, BL21 (DE3) Rosetta or BL21-Gold (DE3)), purified (Histrap, CaptoQ, gel filtration)
T2 sequence (looked up): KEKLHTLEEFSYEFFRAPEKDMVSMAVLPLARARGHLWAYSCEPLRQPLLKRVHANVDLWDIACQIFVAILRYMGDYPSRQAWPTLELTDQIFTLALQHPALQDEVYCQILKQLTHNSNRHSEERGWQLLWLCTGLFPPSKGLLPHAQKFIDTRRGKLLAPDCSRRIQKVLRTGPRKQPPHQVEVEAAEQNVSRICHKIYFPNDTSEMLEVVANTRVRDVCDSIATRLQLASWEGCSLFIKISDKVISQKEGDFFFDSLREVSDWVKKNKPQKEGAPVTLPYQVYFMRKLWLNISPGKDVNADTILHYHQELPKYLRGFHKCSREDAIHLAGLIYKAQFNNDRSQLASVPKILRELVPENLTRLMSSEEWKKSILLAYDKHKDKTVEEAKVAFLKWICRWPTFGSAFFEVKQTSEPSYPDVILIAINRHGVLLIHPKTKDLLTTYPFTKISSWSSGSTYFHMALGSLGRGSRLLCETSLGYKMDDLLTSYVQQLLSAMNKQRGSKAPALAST
Put plainly: MST; YFP-fused partner constant at 100 nM, non-fluorescent protein titrated (16 two-fold dilutions); 20 mM Hepes pH 7.0, 100 mM NaCl, 1 mM EGTA, 0.5 mM TCEP, 0.05% Tween 20; Monolith NT.115.

The assay “Myosin 7a MF2” concerns the target B6. The description is as above.
The assay “Myosin 7b MF2” deals with B1. The assay is described as above.
Assay [2] has as its target T1, YFP-Full length (FL)-harmonin …. Put plainly: MST; as a1 but 150 mM NaCl (for FL-Harmonin-a); YFP-fused partner constant at 100 nM, non-fluorescent protein titrated. This is another data set of the same source.

A value given as a limit tells only on which side of the number the result lay.

Our source for the Kd values is PMC5493754, “Myosin 7 and its adaptors link cadherins to actin” (Nature Communications, 2017).

Take B1: the Kd in assay [1] worked out at 2.05 ± 0.79 µM.

B2: Harmonin-a PDZ3c D546R (domain or fragment, human, UniProt Q9Y6N9-1 428-552, looked up)
chain: QDFRKYEEGFDPYSMFTPEQIMGKDVRLLRIKKEGSLDLALEGGVDSPIGKVVVSAVYERGAAERHGGIVKGDEIMAINGKIVTDYTLAEAEAALQKAWNQGGDWIDLVVAVCPPKEYRDELTFF
notes: Harmonin-a1 (USH1C), human, residues 428-552 of UniProt Q9Y6N9-1; also called PDZ3c (isoA) D546R; source: E. coli BL21 (DE3) Rosetta, purified similarly as wild type
In the assay with YFP-Myosin 7b MF2, B2 gave an equilibrium dissociation constant (Kd) above 300 µM.

B3: YFP-Harmonin-a PDZ3c E469A (domain or fragment, human, UniProt Q9Y6N9-1 428-552, looked up)
chain: QDFRKYEEGFDPYSMFTPEQIMGKDVRLLRIKKEGSLDLALAGGVDSPIGKVVVSAVYERGAAERHGGIVKGDEIMAINGKIVTDYTLAEAEAALQKAWNQGGDWIDLVVAVCPPKEYDDELTFF
notes: Harmonin-a1 (USH1C), human, residues 428-552 of UniProt Q9Y6N9-1; also called ^YFPPDZ3c (isoA) E469A; PDZ3 E469A; source: E. coli BL21 (DE3) Rosetta, purified similarly as wild type
Take B3: the Kd with Myosin 7a MF2 was determined as 5.4 ± 1.5 µM; with Myosin 7b MF2, 6.11 ± 0.44 µM.

B4: YFP-Harmonin-a PDZ3c E469A-I476W (domain or fragment, human, UniProt Q9Y6N9-1 428-552, looked up)
chain: QDFRKYEEGFDPYSMFTPEQIMGKDVRLLRIKKEGSLDLALAGGVDSPWGKVVVSAVYERGAAERHGGIVKGDEIMAINGKIVTDYTLAEAEAALQKAWNQGGDWIDLVVAVCPPKEYDDELTFF
notes: Harmonin-a1 (USH1C), human, residues 428-552 of UniProt Q9Y6N9-1; also called ^YFPPDZ3c (isoA) E469A-I476W; source: E. coli BL21 (DE3) Rosetta, purified similarly as wild type
As for B4, the dissociation constant (Kd) is 70.4 ± 7.2 µM in the assay with Myosin 7a MF2 and 38.1 ± 4.9 µM with Myosin 7b MF2.

B5: YFP-Harmonin-a PDZ3c I476W (domain or fragment, human, UniProt Q9Y6N9-1 428-552, looked up)
chain: QDFRKYEEGFDPYSMFTPEQIMGKDVRLLRIKKEGSLDLALEGGVDSPWGKVVVSAVYERGAAERHGGIVKGDEIMAINGKIVTDYTLAEAEAALQKAWNQGGDWIDLVVAVCPPKEYDDELTFF
notes: Harmonin-a1 (USH1C), human, residues 428-552 of UniProt Q9Y6N9-1; also called ^YFPPDZ3c (isoA) I476W; source: E. coli BL21 (DE3) Rosetta, purified similarly as wild type
Consider B5, for which the equilibrium dissociation constant (Kd) with Myosin 7a MF2 was determined as 17.8 ± 1.1 µM; with Myosin 7b MF2, 18.1 ± 1.4 µM.
Take B6: the Kd in assay [1] came out at 2.36 µM.

B7: Harmonin NPDZ1.PDZ2 (domain or fragment, human, UniProt Q9Y6N9-1 1-301, looked up)
chain: MDRKVAREFRHKVDFLIENDAEKDYLYDVLRMYHQTMDVAVLVGDLKLVINEPSRLPLFDAIRPLIPLKHQVEYDQLTPRRSRKLKEVRLDRLHPEGLGLSVRGGLEFGCGLFISHLIKGGQADSVGLQVGDEIVRINGYSISSCTHEEVINLIRTKKTVSIKVRHIGLIPVKSSPDEPLTWQYVDQFVSESGGVRGSLGSPGNRENKEKKVFISLVGSRGLGCSISSGPIQKPGIFISHVKPGSLSAEVGLEIGDQIVEVNGVDFSNLDHKEAVNVLKSSRSLTISIVAAAGRELFMTDR
notes: Harmonin-a1 (USH1C), human, N-terminal domain, PDZ1 and PDZ2, residues 1-301 of UniProt Q9Y6N9-1; source: E. coli BL21 (DE3) Rosetta, purified (Glutathione Sepharose 4B, size-exclusion chromatography)
In assay [2], B7 came in with a Kd of 3.4 ± 0.1 µM.
